Results taken from patent publication US20230250135A1 (Janssen / Centocor, published 2023).

Tests used:
UFV170051 = UFV170051 (influenza A virus A/Hong Kong/1/68 …); experiment: Binding-AlphaLISA, Expi293F supernatant, reference UFV170051
UFV161715 = UFV161715 (influenza A virus A/Hong Kong/1/68 …); experiment: Binding-AlphaLISA, Expi293F supernatant, normalized to UFV161333
UFV171004 = UFV171004 (influenza A virus A/Hong Kong/1/68 …); experiment: ELISA on purified polypeptide
UFV161333 = UFV161333 (influenza A virus A/Hong Kong/1/68 …)
UFV161721 = UFV161721 (influenza A virus A/Hong Kong/1/68 …); experiment: Binding-AlphaLISA, Expi293F supernatant, normalized to UFV161333

| Binder | binding result (UFV170051) | binding relative to reference UFV161333 (UFV161715) [%] | EC50 (UFV171004) [nM] | fold increase in binding relative to reference UFV161686 (UFV161333) [fold] | binding relative to reference UFV161333 (UFV161721) [%] |
| --- | --- | --- | --- | --- | --- |
| CT149 (antibody, V domains shown) VH: QVQLVQSGAEVKKPGASVKVSCKTSGYSFSTYGVSWVRQAPGQGPEWVGWISAYTGITDYAQKFQGRVTLTTDATTATAFLDLRSLRPDDTATYFCARDKVQGRVEVGSGGRHDYWGQGTLVIVSS VL: EVVLTQSPGTLALPPGERATLSCRASHRVGSTYIAWYQQKSGQAPRRLIYGASNRATDIPDRFSGSGSGTDFTLTIRRLEPEDSAVYYCQQFSVSPWTFGQGTRVEIK | binds | ~90 | < 0.01 |  |  |
| SD15013 (VHH) VHH: EVQLVESGGGLVQAGDSLRISCAASGRTLSIYSMGWFRQAPGKEREFVATIGWNSGRTFYPDSLKGRFTISRDNARNTLYLQMNNLRPEDTAVYYCAAAKGPLRLSSQADYWGQGTQVTVSS |  | ~60 |  | 10 | ~60 |
